Reference: patent US20110183922A1

Target: rat AChEt subunit (rat) (UniProt P37136)
Test: cell-based or functional assay

Chain of rat AChEt subunit (rat) (P37136 32-614 limits assumed): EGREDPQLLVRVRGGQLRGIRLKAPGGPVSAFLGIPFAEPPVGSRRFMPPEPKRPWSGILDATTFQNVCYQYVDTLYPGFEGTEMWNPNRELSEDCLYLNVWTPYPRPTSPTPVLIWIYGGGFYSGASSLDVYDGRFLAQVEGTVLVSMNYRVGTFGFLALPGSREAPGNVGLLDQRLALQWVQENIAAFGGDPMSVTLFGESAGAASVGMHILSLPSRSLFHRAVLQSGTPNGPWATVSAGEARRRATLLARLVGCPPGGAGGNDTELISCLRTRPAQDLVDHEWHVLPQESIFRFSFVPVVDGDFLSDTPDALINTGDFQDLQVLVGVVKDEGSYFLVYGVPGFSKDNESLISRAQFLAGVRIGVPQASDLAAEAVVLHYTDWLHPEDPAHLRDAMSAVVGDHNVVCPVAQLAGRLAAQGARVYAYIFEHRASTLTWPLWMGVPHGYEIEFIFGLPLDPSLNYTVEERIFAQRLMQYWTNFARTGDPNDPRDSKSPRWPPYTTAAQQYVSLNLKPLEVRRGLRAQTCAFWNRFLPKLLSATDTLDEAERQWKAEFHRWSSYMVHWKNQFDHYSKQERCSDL

Substance “ColQ PRAD-GPI: PRAD encoding N-terminal domain of ColQ (Qn) linked to the C-terminal domain of the GPI-anchored AChE form” has a cell-associated AChE activity / tetramerization (velocity sedimentation, COS cells) of 100 % increase.
